This passage reports half effective concentration (EC50) of chemotaxis of BA/F3/huC5aR cells results from patent US20180223285A1.

For the assay, the target named is human C5a receptor (human) (UniProt P21730). Put plainly: cell-based or functional assay.
Sequence of human C5a receptor (human) (P21730 whole entry): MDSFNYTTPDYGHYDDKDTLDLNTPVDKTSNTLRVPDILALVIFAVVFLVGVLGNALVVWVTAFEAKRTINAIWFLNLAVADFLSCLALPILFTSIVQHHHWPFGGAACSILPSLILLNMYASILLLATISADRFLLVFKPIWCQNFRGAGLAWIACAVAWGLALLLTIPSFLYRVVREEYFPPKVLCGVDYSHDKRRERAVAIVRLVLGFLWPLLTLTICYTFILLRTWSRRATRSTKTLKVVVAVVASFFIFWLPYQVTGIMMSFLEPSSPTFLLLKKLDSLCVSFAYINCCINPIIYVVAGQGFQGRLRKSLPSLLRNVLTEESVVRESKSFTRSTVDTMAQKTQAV

For the substance “mouse C5a (from UniProt P06684 679-755) (ligand)”, the half effective concentration (EC50) of chemotaxis of BA/F3/huC5aR cells is 0.3 nM.

“recombinant human C5a (from UniProt P01031 678-751) (ligand)” had a half effective concentration (EC50) of chemotaxis of BA/F3/huC5aR cells of 0.1 nM.
